These results are taken from patent US5906819.

The target of assay [1] is T1, myosin light chain (chicken) (UniProt P02612).
T1 sequence: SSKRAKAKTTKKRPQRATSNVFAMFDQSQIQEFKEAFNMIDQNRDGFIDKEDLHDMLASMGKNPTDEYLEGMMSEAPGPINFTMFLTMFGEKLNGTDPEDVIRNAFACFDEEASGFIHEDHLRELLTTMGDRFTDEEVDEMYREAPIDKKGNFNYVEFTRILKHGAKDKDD

Assay [2] deals with bovine Rho-kinase (bovine).
For assay [3], the target named is bovine Rho-kinase (bovine). This is another data set of the same source.
The target in assay [4] is bovine Rho-kinase (bovine). The source holds these as a separate data set.

Sequence of myosin light chain kinase (P11799 935-1906 limits assumed): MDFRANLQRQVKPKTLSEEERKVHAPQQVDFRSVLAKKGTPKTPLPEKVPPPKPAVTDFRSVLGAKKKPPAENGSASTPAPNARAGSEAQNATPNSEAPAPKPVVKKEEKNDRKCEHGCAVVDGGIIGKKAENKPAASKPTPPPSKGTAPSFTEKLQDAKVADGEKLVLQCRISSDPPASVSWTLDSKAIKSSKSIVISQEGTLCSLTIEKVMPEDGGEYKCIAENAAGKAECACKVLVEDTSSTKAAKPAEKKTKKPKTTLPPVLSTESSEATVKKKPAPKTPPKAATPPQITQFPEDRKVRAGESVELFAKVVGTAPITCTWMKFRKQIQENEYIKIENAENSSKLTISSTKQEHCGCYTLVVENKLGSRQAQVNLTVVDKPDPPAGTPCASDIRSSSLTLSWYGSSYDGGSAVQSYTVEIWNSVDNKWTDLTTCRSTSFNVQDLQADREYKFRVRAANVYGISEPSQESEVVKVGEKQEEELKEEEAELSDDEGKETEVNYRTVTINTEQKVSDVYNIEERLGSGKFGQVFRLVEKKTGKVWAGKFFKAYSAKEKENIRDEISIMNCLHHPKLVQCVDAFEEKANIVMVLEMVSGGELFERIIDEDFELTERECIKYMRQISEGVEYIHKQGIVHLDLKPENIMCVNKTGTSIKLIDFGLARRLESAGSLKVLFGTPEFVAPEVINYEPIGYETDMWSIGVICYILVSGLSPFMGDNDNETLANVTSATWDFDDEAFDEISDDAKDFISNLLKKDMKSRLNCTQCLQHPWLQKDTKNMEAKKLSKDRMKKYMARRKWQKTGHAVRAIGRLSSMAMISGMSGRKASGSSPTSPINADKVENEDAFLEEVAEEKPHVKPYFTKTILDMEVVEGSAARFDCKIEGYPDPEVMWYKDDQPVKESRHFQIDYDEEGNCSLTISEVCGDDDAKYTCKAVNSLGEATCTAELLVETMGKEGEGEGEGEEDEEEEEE

For “myosin light chain kinase (from UniProt P11799-2) (enzyme)”, the apparent Km for myosin light chain in assay [1] worked out at 52.1 µM.

Consider bovine Rho-kinase (enzyme), for which, in assay [1], the apparent Km for myosin light chain, in the absence of GTPγS·GST-RhoA was 12.6 µM and the apparent Km for myosin light chain, in the presence of GTPγS·GST-RhoA is 2.6 µM. Also, in the assay with intact myosin (chicken), the phosphorylation of the myosin light chain of intact myosin (mol of phosphate into 1 mol) came out at 1.

GTPγS·GST-RhoA (from UniProt P61586): the autophosphorylation of bovine Rho-kinase in assay [2] came to 2 times. This substance yielded a phosphorylation of rat myosin-binding subunit by bovine Rho-kinase in assay [3] of 15 times. In assay [4], the phosphorylation of MBS-C by bovine Rho-kinase is 5 times.
